Experimental data as given in PMC8511506 (Cell Reports, 2021).

T1: CYLD CAP-Gly3 L475P (aa 467-582) (human, UniProt Q9NQC7 467-582, L475P)
T1 construct: CYLD, human, third CAP-Gly domain, aa 467-582, with L475P; Isotope-labelled for NMR; also called pOPINS-CYLD 467-582 L475P; source: E. coli Rosetta2 (DE3) pLacI, purified (HisTrap, anion exchange, SEC)
T1 sequence (looked up): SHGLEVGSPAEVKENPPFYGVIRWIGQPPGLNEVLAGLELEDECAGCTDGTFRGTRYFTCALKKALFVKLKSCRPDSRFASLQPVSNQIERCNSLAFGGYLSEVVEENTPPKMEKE

B1: CYLD CAP-Gly3 (aa 460-582) (domain or fragment, human, UniProt Q9NQC7 460-582, looked up)
chain: LAMPPGNSHGLEVGSLAEVKENPPFYGVIRWIGQPPGLNEVLAGLELEDECAGCTDGTFRGTRYFTCALKKALFVKLKSCRPDSRFASLQPVSNQIERCNSLAFGGYLSEVVEENTPPKMEKE
notes: CYLD, human, third CAP-Gly domain with flanking residues, aa 460-582; 15N- or 15N,13C-labelled where it was the observed protein in NMR; also called pOPINS-CYLD 460-582; source: E. coli Rosetta2 (DE3) pLacI, purified (HisTrap, anion exchange, SEC)
B2: CYLD CAP-Gly2 (aa 226-313) (domain or fragment, human, UniProt Q9NQC7 226-313, looked up)
chain: ELPPLEINSRVSLKVGETIESGTVIFCDVLPGKESLGYFVGVDMDNPIGNWDGRFDGVQLCSFACVESTILLHINDIIPALSESVTQE
notes: CYLD, human, second CAP-Gly domain, aa 226-313; Isotope-labelled where it was the observed protein in NMR; also called pOPINS-CYLD 226-313; source: E. coli Rosetta2 (DE3) pLacI, purified (HisTrap, anion exchange, SEC)
B3: NEMO ZnF domain (aa 383-419) (domain or fragment, UniProt Q9Y6K9 383-419, looked up)
chain: SQRRSPPEEPPDFCCPKCQYQAPDMDTLQIHVMECIE
notes: NEMO/IKKγ, zinc finger domain, aa 383-419; Expression and purification of this construct are not described; also called NEMO/IKKγ; pOPINB-NEMO 383-419
B4: CYLD CAP-Gly3 (aa 467-552), crystal form 1 (domain or fragment, human, UniProt Q9NQC7 467-552, looked up)
chain: SHGLEVGSLAEVKENPPFYGVIRWIGQPPGLNEVLAGLELEDECAGCTDGTFRGTRYFTCALKKALFVKLKSCRPDSRFASLQPVS
notes: CYLD, human, third CAP-Gly domain extended C-terminally, aa 467-552 (the crystallisation methods say 465-552); also called CAP-Gly3 (467-552); source: E. coli Rosetta2 (DE3) pLacI, purified (HisTrap, anion exchange, SEC)
B5: CYLD CAP-Gly3 (aa 467-565), crystal form 2 (domain or fragment, human, UniProt Q9NQC7 467-565, looked up)
chain: SHGLEVGSLAEVKENPPFYGVIRWIGQPPGLNEVLAGLELEDECAGCTDGTFRGTRYFTCALKKALFVKLKSCRPDSRFASLQPVSNQIERCNSLAFGG
notes: also called CAP-Gly3 (467-565); source: E. coli Rosetta2 (DE3) pLacI, purified (HisTrap, anion exchange, SEC)

How the values were obtained:
Details in all cases: both partners purified
Ubiquitin [1] = molecular target: T2, Ubiquitin (UniProt P0CG47 1-76); assay: NMR titration; 15N-labelled Ub observed (BEST-TROSY, weighted chemical shift perturbations), unlabelled CAP-Gly domain added (3-fold molar excess for CAP-Gly3); 298 K; 20 mM Tris pH 7.4, 100 mM NaCl, 4 mM DTT
T2 construct: ubiquitin (mono-ubiquitin), the cut product of the ubiquitin precursors; 15N-labelled in the Ub-observed NMR experiments, unlabelled in ITC, crystallisation and the CAP-Gly-observed NMR

[2] = molecular target: B1; assay: NMR titration; isotope-labelled CAP-Gly domain or variant observed (BEST-TROSY, chemical shift perturbations), unlabelled partner added (Ub at 3-fold molar excess, or NEMO ZnF); 298 K; 20 mM Tris pH 7.4, 100 mM NaCl, 4 mM DTT
[3] = molecular target: T1, CYLD CAP-Gly3 L475P (aa 467-582); assay: as above
Ubiquitin [4] = molecular target: T2, Ubiquitin; assay: crystal structure; CAP-Gly3 co-crystallised with 1.1 molar excess of Ub, sitting-drop vapor diffusion; molecular replacement

binding result (Ubiquitin [1]) | binding result (Ubiquitin [4]) | Binder | also measured
binds | – | B1 | –
binds | – | B2 | –
– | – | B3 | binding result [2]: binds; binding result [3]: binds
– | binds | B4 | –
– | binds | B5 | –
